Assay [1] concerns the target T1, PD-L2-Fc (human PD-L2) (human, UniProt Q9BQ51 20-220, limits assumed).
T1 construct: not shown: Fc portion
T1 sequence (looked up): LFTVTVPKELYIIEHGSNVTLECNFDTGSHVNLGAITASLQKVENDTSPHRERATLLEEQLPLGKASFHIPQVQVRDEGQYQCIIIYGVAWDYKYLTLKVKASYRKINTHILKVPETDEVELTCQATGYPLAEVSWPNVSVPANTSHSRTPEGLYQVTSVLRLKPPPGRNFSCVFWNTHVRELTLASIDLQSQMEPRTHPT
The experiment in a line: yeast surface display binding assay for PDL2 (summary list).

Assay [2] concerns the target T1, PD-L2-Fc (human PD-L2). Kind of assay: yeast surface display, flow cytometry titration with soluble PDL2.
Assay [3] addresses T1, PD-L2-Fc (human PD-L2). The experiment in a line: yeast surface display, flow cytometry titration with soluble PDL2 (cell binding A.U. against PDL2 concentration). In general terms: In flow cytometry, cells or beads pass a laser one at a time.
Assay [4] addresses T2, PDL1-Fc (human PD-L1) (human, UniProt Q9NZQ7 19-238, limits assumed).
T2 construct: not shown: Fc portion
The experiment in a line: yeast surface display binding assay for PDL1 (summary list).

For assay [5], the target named is T1, PD-L2-Fc (human PD-L2). The experiment in a line: yeast surface display, flow cytometry titration with soluble PDL2. The source holds these as a separate data set.
In assay [6] the target is T2, PDL1-Fc (human PD-L1). Kind of assay: yeast surface display, flow cytometry titration with soluble PDL1 (cell binding A.U. against PDL1 concentration).
The target of assay [7] is T1, PD-L2-Fc (human PD-L2). Kind of assay: yeast surface display, flow cytometry titration with soluble PDL2 (cell binding A.U. against PDL2 concentration). The source holds these as a separate data set.
For assay [8], the target named is T2, PDL1-Fc (human PD-L1). Kind of assay: yeast surface display, flow cytometry titration with soluble PDL1.
The target of assay [9] is T1, PD-L2-Fc (human PD-L2). The experiment in a line: yeast surface display, flow cytometry titration with soluble PDL2. This is another data set of the same source.
In assay [10] the target is T2, PDL1-Fc (human PD-L1). The experiment in a line: yeast surface display, flow cytometry titration with soluble PDL1 (cell binding A.U. against PDL1 concentration). The source holds these as a separate data set.
The target in assay [11] is T1, PD-L2-Fc (human PD-L2). The experiment in a line: yeast surface display, flow cytometry titration with soluble PDL2 (cell binding A.U. against PDL2 concentration). This is another data set of the same source.
The target in assay [12] is T1, PD-L2-Fc (human PD-L2). Kind of assay: yeast surface display, flow cytometry titration with soluble PDL2. The source holds these as a separate data set.
Assay [13] concerns the target T2, PDL1-Fc (human PD-L1). The experiment in a line: yeast surface display, flow cytometry titration with soluble PDL1 (cell binding A.U. against PDL1 concentration). The source holds these as a separate data set.
In assay [14] the target is T1, PD-L2-Fc (human PD-L2). Kind of assay: yeast surface display, flow cytometry titration with soluble PDL2 (cell binding A.U. against PDL2 concentration). This is another data set of the same source.
Assay [15] deals with T2, PDL1-Fc (human PD-L1). Kind of assay: yeast surface display, flow cytometry titration with soluble PDL1 (cell binding A.U. against PDL1 concentration). This is another data set of the same source.
The target of assay [16] is T1, PD-L2-Fc (human PD-L2). The experiment in a line: yeast surface display, flow cytometry titration with soluble PDL2 (cell binding A.U. against PDL2 concentration). The source holds these as a separate data set.
For assay [17], the target named is T2, PDL1-Fc (human PD-L1). The experiment in a line: yeast surface display, flow cytometry titration with soluble PDL1. This is another data set of the same source.
Assay [18] has as its target T1, PD-L2-Fc (human PD-L2). The experiment in a line: yeast surface display, flow cytometry titration with soluble PDL2. This is another data set of the same source.
The target in assay [19] is T2, PDL1-Fc (human PD-L1). Kind of assay: yeast surface display, flow cytometry titration with soluble PDL1 (cell binding A.U. against PDL1 concentration). The source holds these as a separate data set.
Assay [20] addresses T1, PD-L2-Fc (human PD-L2). The experiment in a line: yeast surface display, flow cytometry titration with soluble PDL2 (cell binding A.U. against PDL2 concentration). The source holds these as a separate data set.

The results in this text go back to patent US20230131056A1 (Stanford University, published 2023).

Residue numbers refer to the chain shown, from its start. Like-named read-outs stand apart in the source and are kept apart here.

Broadly, the Kd is the constant that tells how readily two partners part at equilibrium. A high value points to weaker binding. In general, EC50 (read off the curve) refers to the midpoint of the concentration-response curve.

T2 sequence (Q9NZQ7 19-238 limits assumed): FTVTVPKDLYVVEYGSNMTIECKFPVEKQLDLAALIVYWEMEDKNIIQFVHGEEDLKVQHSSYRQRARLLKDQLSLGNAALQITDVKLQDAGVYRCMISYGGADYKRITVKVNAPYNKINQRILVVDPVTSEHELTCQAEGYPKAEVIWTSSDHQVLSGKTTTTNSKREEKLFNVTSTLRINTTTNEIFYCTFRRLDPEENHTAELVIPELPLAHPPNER

B1: Clone #3 (128-6 mutations, yeast displayed sPD-1 mutant) (receptor)
chain: LDSPDRPWNPPTFSPALLVVTEGDNATFTCSFSNTSESFVLNWYRMSPSNQTDKLAAFPEDRGQLGQDCRFRVTQLPNGRDFHMSVVRARRNDSGTYLCSAIVLAPKIQIKESLRVELRVTERRAEVPTAHPSPSPRPAGQFQTLV
On to B1, for which the Kd in [1] and in [3] was 1.1 nM in each case. Besides, in assay [2], the “EC50 (read off the curve)” value is ~1 nM.

B2: Clone #4 (100-4 mutations, yeast displayed sPD-1 mutant) (receptor)
chain: B1 chain with G63S, L65P
Take B2: the Kd in assay [4] was 0.08 nM; in assay [1], 0.87 nM; in assay [6], 0.08 nM; in assay [7], 0.87 nM. Moreover, in [5], the “EC50 (read off the curve)” value was ~0.9 nM.

B3: Clone #5 (62-3 mutations, yeast displayed sPD-1 mutant) (receptor)
chain: B1 chain with G63S, L65P, V116A
Turning to B3, the dissociation constant Kd in assay [4] came out at 0.8 nM; in [1], 4.1 nM; in assay [10], 0.8 nM; in assay [11], 4.1 nM. Moreover, the 50% effective concentration (EC50 (read off the curve)) in assay [8] is ~0.8 nM; in [9], ~4 nM.

B4: Clone #1 (121-5 mutations, yeast displayed sPD-1 mutant) (receptor)
chain: B1 chain with G63S
As for B4, the Kd in [4] was 0.03 nM; in assay [1] it was 1.4 nM; in assay [13], 0.03 nM; in [14], 1.4 nM. Moreover, the 50% effective concentration (EC50 (read off the curve)) in assay [12] was ~1 nM.

B5: Clone #2 (120-5 mutations, yeast displayed sPD-1 mutant) (receptor)
chain: B1 chain with L65P
With B5, the equilibrium dissociation constant (Kd) amounted to 0.12 nM in assay [4], 0.11 nM in [1], 0.12 nM in assay [15] and 0.11 nM in [16].

B6: original mutant sPD-1 (7 mutations, yeast displayed) (receptor)
chain: B1 chain with S38G
notes: also called initial Mutant PD-1 clone; 2-7 mutations
As for B6, the Kd was 0.44 nM in [4], 2.6 nM in assay [1], 0.44 nM in [19] and 2.6 nM in assay [20]. In addition, the “EC50 (read off the curve)” value was ~0.4 nM in assay [17] and ~3 nM in assay [18].
